Assay results as given in PMC9089384.

Molecular target: human SHP2 catalytic domain (human) (UniProt Q06124)

**Q.** How did the IC50 of inhibition of SHP2 CD PTP activity by isolated N-SH2 (Figure S2) turn out when “isolated SHP2 N-SH2 domain (domain or fragment)” was run?
**A.** Its IC50 of inhibition of SHP2 CD PTP activity by isolated N-SH2 (Figure S2) is 15 µM.
